From patent US12383631B2, “Immune antigen specific IL-18 immunocytokines and uses thereof” (Bright Peak Therapeutics AG, priority 2022, dated 2025) come the findings set out here.

The target in this experiment is His-tagged human PD1 (Homo sapiens, UniProt Q15116). As to the kind of experiment: Bio-Layer Interferometry (BLI) binding kinetics to PD-1 (Example 6). The conditions noted are these: AHC sensors, analyte His-tagged human PD1. From the text:
Based on Bio-Layer Interferometry (BLI), Octet® BLI systems enable real-time, label-free analysis for the determination of kinetics and affinity of a ligands to its receptor. Here anti-human IgG FC Capture (AHC) sensors are loaded with the test items (ICs). Sensors are first dipped into a kinetic buffer for baseline measurement, then into an analyte solution, here human PD1, to allow association and again into a buffer solution where the analyte is allowed to come off the ligand (dissociation). Several concentrations of analyte are run in parallel and enable the calculation of affinity parameters: Ka, Kd, KD.
Typically, first, the sensors are regenerated by 3 cycles of dipping into 10 mM glycine solution at pH=2 for 20 seconds, followed by 20 second kinetics buffer and a final 60 seconds in kinetics buffer to establish the initial signal (baseline). Second, the loading column will contain the ligand, here the unmodified PD-1 antibodies and of IL-18 polypeptide conjugated PD-1 antibody, at a fixed concentration determined in the loading scout experiment (20 ug/mL). Then another wash/baseline step allows non immobilized proteins to be washed away. […] After acquisition, the data is analyzed with Data Analysis Studio software (Sartorius). […] Group fitting is then applied to the data series and kinetics parameters are calculated.
On the technique in general: Biolayer interferometry detects binding as a change in optical thickness at a sensor tip.

Chain of His-tagged human PD1 (Q15116 25-288): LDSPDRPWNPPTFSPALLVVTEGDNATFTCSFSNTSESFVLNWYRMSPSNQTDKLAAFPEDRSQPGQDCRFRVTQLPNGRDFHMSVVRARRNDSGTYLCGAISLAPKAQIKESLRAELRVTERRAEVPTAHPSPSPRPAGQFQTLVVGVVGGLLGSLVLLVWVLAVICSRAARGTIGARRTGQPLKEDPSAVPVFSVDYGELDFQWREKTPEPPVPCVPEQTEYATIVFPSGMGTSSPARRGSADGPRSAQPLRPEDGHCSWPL

For “LZM-009: anti-PD-1 antibody (VH SEQ ID NO: 376, VL SEQ ID NO: 377), unconjugated reference antibody [reference compound]”, the ka amounted to 342000 M⁻¹ s⁻¹ and the kd worked out at 0.0077 s⁻¹.
